Laboratory results taken from patent US20260151494A1 (ARO BIOTHERAPEUTICS, published 2026).
Residue numbers refer to the chain shown, from its start. Blank lines part the entries; values can stand above or below the binder they belong to.

Columns and labels:
[1] = target: T1, human CD71 on cells (SKBR3; SW620-rLuc-KRAS) (human, UniProt P02786 1-760); assay: cell-based or functional assay
[2] = target: T2, human CD71 extracellular domain (human, UniProt P02786 89-760); assay: primary ELISA of colonies, luminescence
T2 construct: also called hCD71; human CD71-ECD
T2 sequence (P02786 89-760): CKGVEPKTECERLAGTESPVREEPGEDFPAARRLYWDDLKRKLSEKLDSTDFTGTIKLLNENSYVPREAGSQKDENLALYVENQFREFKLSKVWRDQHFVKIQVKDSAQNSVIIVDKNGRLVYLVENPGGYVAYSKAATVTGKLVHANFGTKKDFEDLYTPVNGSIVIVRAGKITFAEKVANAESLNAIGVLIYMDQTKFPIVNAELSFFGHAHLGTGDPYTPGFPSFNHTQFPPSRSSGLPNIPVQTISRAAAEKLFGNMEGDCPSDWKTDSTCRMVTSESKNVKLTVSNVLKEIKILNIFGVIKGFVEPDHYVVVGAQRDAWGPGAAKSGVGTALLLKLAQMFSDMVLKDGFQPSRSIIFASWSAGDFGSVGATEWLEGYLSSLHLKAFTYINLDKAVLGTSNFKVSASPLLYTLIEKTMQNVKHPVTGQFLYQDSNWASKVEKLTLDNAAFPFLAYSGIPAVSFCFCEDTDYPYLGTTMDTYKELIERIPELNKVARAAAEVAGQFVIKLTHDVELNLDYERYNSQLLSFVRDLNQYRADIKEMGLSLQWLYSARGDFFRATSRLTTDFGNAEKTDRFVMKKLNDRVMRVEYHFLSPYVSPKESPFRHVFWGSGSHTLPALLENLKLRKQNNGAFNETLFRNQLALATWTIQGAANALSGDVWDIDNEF

[3] = target: T3, apical domain of human CD71 (human, UniProt P02786 189-383, limits assumed); assay: primary ELISA of colonies, luminescence
T3 construct: domain: apical domain; the panning antigen was 30% biotinylated; also called human apical domain of CD71
T3 sequence (P02786 189-383 limits assumed): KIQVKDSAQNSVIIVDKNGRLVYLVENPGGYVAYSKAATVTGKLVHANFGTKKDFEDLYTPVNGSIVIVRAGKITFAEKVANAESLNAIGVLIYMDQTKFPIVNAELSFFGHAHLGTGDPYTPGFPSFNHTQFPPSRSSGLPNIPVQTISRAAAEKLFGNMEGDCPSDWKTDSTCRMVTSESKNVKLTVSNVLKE

[4] = target: T3, apical domain of human CD71; assay: primary ELISA; signal on apical domain over signal on HSA
[5] = target: T2, human CD71 extracellular domain; assay: primary ELISA; signal on hCD71 over signal on HSA
[6] = target: T1, human CD71 on cells (SKBR3; …); assay: cell-based or functional assay; remark: listed apart in the source

T1 sequence (P02786 whole entry, the tested form may be a part): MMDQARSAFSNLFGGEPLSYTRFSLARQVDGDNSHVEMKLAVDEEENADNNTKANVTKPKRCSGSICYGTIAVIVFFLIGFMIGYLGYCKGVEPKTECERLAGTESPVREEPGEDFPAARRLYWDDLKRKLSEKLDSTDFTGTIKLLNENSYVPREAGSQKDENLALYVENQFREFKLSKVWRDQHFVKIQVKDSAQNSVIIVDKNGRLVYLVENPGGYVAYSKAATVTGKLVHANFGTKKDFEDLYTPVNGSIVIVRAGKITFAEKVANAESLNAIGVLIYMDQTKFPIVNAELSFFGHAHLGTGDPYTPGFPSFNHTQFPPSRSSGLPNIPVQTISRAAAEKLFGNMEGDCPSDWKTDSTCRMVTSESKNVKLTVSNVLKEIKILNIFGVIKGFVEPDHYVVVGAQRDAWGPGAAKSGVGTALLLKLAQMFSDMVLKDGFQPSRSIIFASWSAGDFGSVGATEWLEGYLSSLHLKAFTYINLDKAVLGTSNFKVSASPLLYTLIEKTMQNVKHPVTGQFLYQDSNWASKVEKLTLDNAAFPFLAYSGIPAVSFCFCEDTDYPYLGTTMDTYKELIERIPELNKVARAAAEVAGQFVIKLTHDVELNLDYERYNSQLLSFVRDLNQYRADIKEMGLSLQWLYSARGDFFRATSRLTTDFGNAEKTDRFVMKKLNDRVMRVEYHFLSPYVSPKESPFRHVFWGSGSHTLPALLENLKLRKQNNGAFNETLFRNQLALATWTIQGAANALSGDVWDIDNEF

LSA EC50 (luciferase reporter assay, SW620-rLuc-KRAS cells, 72 h) [1]: 630 pM
B1: CD71-binding FN3 domain of SEQ ID NO: 234 conjugated to KRAS2 siRNA (designed binder)
chain: MSLPAPKNLVVSRVTEDSARLSWTAPDAAFDSFFIGYLEPQPPGEAIALYVPGSERSYDLTGLKPGTEYNVTIQGVKGGFPSEPLVAHFTT
modifications: conjugated to KRAS2 tool siRNA; site and linker not stated

LSA EC50 (luciferase reporter assay, SW620-rLuc-KRAS cells, 72 h) [1]: 580 pM
B2: CD71-binding FN3 domain of SEQ ID NO: 333 conjugated to KRAS2 siRNA (designed binder)
chain: B1 chain with K7E, E83L, H88T
modifications: conjugated to KRAS2 tool siRNA; site and linker not stated

LSA EC50 (luciferase reporter assay, SW620-rLuc-KRAS cells, 72 h) [1]: 540 pM
B3: CD71-binding FN3 domain of SEQ ID NO: 293 conjugated to KRAS2 siRNA (designed binder)
chain: B1 chain with A48D, E83H, H88T
modifications: conjugated to KRAS2 tool siRNA; site and linker not stated

LSA EC50 (luciferase reporter assay, SW620-rLuc-KRAS cells, 72 h) [1]: 470 pM
B4: CD71-binding FN3 domain of SEQ ID NO: 335 conjugated to KRAS2 siRNA (designed binder)
chain: B1 chain with A48D, E83L, H88T
modifications: conjugated to KRAS2 tool siRNA; site and linker not stated

LSA EC50 (luciferase reporter assay, SW620-rLuc-KRAS cells, 72 h) [1]: 530 pM
B5: CD71-binding FN3 domain of SEQ ID NO: 974 conjugated to KRAS2 siRNA (designed binder)
chain: B1 chain with E83L, H88T
modifications: conjugated to KRAS2 tool siRNA; site and linker not stated

LSA EC50 (luciferase reporter assay, SW620-rLuc-KRAS cells, 72 h) [1]: 2100 pM
B6: CD71-binding FN3 domain of SEQ ID NO: 270 conjugated to KRAS2 siRNA (designed binder)
chain: B1 chain with A48H, V86I, H88N, F89S
modifications: conjugated to KRAS2 tool siRNA; site and linker not stated

LSA EC50 (luciferase reporter assay, SW620-rLuc-KRAS cells, 72 h) [1]: 470 pM
B7: CD71-binding FN3 domain of SEQ ID NO: 295 conjugated to KRAS2 siRNA (designed binder)
chain: B1 chain with A48D, H88T
modifications: conjugated to KRAS2 tool siRNA; site and linker not stated

LSA EC50 (luciferase reporter assay, SW620-rLuc-KRAS cells, 72 h) [1]: 570 pM
B8: CD71-binding FN3 domain of SEQ ID NO: 290 conjugated to KRAS2 siRNA (designed binder)
chain: B1 chain with A48H, H88T
modifications: conjugated to KRAS2 tool siRNA; site and linker not stated

LSA EC50 (luciferase reporter assay, SW620-rLuc-KRAS cells, 72 h) [1]: 750 pM
B9: CD71-binding FN3 domain of SEQ ID NO: 331 conjugated to KRAS2 siRNA (designed binder)
chain: B1 chain with A48H, G78V, V86I, H88N
modifications: conjugated to KRAS2 tool siRNA; site and linker not stated

LSA EC50 (luciferase reporter assay, SW620-rLuc-KRAS cells, 72 h) [1]: 480 pM
B10: CD71-binding FN3 domain of SEQ ID NO: 973 conjugated to KRAS2 siRNA (designed binder)
chain: B1 chain with A48H, V71G, G78V, V86I, H88N
modifications: conjugated to KRAS2 tool siRNA; site and linker not stated

LSA EC50 (luciferase reporter assay, SW620-rLuc-KRAS cells, 72 h) [1]: 670 pM
B11: CD71-binding FN3 domain of SEQ ID NO: 341 conjugated to KRAS2 siRNA (designed binder)
chain: B1 chain with A48E, E83L, H88I
modifications: conjugated to KRAS2 tool siRNA; site and linker not stated

LSA EC50 (luciferase reporter assay, SW620-rLuc-KRAS cells, 72 h) [1]: 490 pM
B12: CD71-binding FN3 domain of SEQ ID NO: 972 conjugated to KRAS2 siRNA (designed binder)
chain: B1 chain with V76A, A87V
modifications: conjugated to KRAS2 tool siRNA; site and linker not stated

LSA EC50 (luciferase reporter assay, SW620-rLuc-KRAS cells, 72 h) [1]: 640 pM
B13: CD71-binding FN3 domain of SEQ ID NO: 343 conjugated to KRAS2 siRNA (designed binder)
chain: B1 chain with Y50W, H88T
modifications: conjugated to KRAS2 tool siRNA; site and linker not stated

LSA EC50 (luciferase reporter assay, SW620-rLuc-KRAS cells, 72 h) [1]: 390 pM
B14: CD71-binding FN3 domain of SEQ ID NO: 281 conjugated to KRAS2 siRNA (designed binder)
chain: B1 chain with V86I, H88N
modifications: conjugated to KRAS2 tool siRNA; site and linker not stated

LSA EC50 (luciferase reporter assay, SW620-rLuc-KRAS cells, 72 h) [1]: 450 pM
B15: CD71-binding FN3 domain of SEQ ID NO: 264 conjugated to KRAS2 siRNA (designed binder)
chain: B1 chain with A87V
modifications: conjugated to KRAS2 tool siRNA; site and linker not stated

hCD71, RLU [2]: 340000 RLU
Apical domain, RLU [3]: 542000 RLU
Apical domain:HSA [4]: 125 ratio
hCD71:HSA [5]: 78 ratio
B16: CD71-binding FN3 domain of SEQ ID NO: 101 (designed binder)
chain: MLPAPKNLVVSRVTEDSARLSWTAPDAAFDSFGIGYWERRWYGEAIVLTVPGSERSYDLTGLKPGTEYEVTIRGVKGGGYSGPLSAIFTT
notes: Screen 1 hit, tested from colonies in the primary ELISA; not shown: C-terminal poly-histidine tag added to each FN3 domain

CTG EC50 (CellTiter-Glo luminescent assay, SKBR3 cells, 72 h) [6]: 10900 pM
B17: CD71-binding FN3 domain of SEQ ID NO: 370 (designed binder)
chain: MLPAPKNLVVSRVTEDSARLSWTAPDAAFDSFYIAYAEPRPDGEAIVLVVPGSERSYDLTGLKPGTEYSVLIHGVKGGLLSSPLSAHFTT

hCD71, RLU [2]: 6.95e+06 RLU
Apical domain, RLU [3]: 6.1e+06 RLU
Apical domain:HSA [4]: 787 ratio
hCD71:HSA [5]: 897 ratio
B18: CD71-binding FN3 domain of SEQ ID NO: 100 (designed binder)
chain: B17 chain with V47L, V49L, S85V, H87S
notes: as for B16

hCD71, RLU [2]: 4.05e+06 RLU
Apical domain, RLU [3]: 6.06e+06 RLU
Apical domain:HSA [4]: 2200 ratio
hCD71:HSA [5]: 1470 ratio
B19: CD71-binding FN3 domain of SEQ ID NO: 116 (designed binder)
chain: B17 chain with V47L, V49L, S85I, H87G
notes: as for B16
